# Values quoted from earlier work, collected in article PMC4718210.
# Where two headings read alike, the source gives them in different places.
# Columns and labels:
# [1] = target: RXFP4 receptor (Homo sapiens) (UniProt Q8TDU9)
# [2] = target: RXFP1 receptor (Homo sapiens) (UniProt Q9HBX9)
# [3] = target: RXFP2 receptor (Homo sapiens) (UniProt Q8WXD0)
# [4] = target: TRH1 receptor (Homo sapiens) (UniProt P34981)
# [5] = target: RXFP4 receptor (Homo sapiens) (UniProt Q8TDU9); remark: listed apart in the source
# UniProt Q8TDU9, sequence (Q8TDU9 whole entry): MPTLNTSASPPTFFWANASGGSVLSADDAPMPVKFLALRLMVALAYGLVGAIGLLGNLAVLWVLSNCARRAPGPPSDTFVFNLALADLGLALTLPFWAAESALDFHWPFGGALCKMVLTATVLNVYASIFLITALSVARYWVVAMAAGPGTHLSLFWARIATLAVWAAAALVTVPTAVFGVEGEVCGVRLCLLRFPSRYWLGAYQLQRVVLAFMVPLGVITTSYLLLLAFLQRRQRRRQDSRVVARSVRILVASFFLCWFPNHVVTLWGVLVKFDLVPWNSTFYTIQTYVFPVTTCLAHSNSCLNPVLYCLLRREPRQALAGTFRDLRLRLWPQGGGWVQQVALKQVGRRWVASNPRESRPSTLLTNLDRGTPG
# UniProt Q8WXD0, sequence (Q8WXD0 whole entry): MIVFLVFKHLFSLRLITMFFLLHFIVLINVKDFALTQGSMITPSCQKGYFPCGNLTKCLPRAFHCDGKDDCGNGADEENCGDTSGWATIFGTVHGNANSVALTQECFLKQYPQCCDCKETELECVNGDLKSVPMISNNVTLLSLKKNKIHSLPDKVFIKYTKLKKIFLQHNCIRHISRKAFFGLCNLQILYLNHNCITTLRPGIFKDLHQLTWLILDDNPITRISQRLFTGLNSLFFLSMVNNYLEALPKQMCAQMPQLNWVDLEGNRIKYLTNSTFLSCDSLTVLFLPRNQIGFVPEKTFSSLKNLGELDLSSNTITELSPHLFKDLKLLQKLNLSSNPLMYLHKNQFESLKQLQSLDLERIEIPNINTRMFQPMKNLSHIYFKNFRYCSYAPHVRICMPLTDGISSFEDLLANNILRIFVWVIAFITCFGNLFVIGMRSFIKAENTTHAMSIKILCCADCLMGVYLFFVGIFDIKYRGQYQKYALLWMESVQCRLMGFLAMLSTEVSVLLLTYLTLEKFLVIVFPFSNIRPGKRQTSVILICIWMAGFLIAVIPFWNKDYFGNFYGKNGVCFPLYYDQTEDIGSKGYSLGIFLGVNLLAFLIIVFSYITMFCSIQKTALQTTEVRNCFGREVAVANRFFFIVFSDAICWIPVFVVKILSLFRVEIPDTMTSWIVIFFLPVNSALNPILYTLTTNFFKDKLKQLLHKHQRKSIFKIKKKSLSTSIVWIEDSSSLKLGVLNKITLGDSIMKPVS
# UniProt Q9HBX9, sequence (Q9HBX9 whole entry): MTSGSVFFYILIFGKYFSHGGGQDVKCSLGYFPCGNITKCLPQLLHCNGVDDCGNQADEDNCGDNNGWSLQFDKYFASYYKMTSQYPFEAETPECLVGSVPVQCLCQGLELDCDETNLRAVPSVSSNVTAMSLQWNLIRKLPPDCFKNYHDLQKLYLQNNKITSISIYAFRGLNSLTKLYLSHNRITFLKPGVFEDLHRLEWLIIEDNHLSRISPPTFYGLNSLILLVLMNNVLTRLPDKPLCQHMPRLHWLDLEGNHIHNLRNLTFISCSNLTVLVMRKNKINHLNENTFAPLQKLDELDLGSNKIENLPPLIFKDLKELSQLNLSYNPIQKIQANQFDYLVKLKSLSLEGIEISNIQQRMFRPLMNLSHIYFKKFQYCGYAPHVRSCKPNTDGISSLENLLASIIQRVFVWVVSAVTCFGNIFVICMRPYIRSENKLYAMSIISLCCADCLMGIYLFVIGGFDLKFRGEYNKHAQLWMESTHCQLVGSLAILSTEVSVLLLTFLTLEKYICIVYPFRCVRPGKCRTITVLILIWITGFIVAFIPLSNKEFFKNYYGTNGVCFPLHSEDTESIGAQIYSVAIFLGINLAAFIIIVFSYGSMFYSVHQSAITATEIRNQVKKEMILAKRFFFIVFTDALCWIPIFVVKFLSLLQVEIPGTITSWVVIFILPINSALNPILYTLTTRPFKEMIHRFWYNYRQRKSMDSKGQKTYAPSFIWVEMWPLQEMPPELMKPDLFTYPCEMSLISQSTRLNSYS
# UniProt P34981, sequence (P34981 whole entry): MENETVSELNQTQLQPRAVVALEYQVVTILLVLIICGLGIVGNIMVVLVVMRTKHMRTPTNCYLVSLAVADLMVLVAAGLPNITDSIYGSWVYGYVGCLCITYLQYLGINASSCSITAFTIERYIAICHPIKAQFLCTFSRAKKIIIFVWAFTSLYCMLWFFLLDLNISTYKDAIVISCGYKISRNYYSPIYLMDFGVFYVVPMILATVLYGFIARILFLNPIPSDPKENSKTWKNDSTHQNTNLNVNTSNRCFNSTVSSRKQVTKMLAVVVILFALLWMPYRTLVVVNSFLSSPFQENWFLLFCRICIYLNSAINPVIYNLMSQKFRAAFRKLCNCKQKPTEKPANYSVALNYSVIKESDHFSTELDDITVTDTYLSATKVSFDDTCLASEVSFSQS
substance,measurement,setting,value
INSL5 (from UniProt Q9WUG6),Kd,[1],5 nM
relaxin (from UniProt P04090),Kd,[2],0.5 nM
INSL3 (from UniProt P51460),Kd,[3],1 nM
TRH (from UniProt P20396),Kd,[4],13 nM
INSL5 (from UniProt Q9Y5Q6),Kd,[5],5.01 nM
